# Results taken from patent US20250009808A1.
# Molecular target: rat RT1A class I histocompatibility antigen (rat (Rattus norvegicus)) (UniProt P16391)
# Experiment: heterogeneous rat liver cells incubated with antibody; cell count of retained versus flow-through fractions
# UniProt P16391, sequence (P16391 25-371 limits assumed): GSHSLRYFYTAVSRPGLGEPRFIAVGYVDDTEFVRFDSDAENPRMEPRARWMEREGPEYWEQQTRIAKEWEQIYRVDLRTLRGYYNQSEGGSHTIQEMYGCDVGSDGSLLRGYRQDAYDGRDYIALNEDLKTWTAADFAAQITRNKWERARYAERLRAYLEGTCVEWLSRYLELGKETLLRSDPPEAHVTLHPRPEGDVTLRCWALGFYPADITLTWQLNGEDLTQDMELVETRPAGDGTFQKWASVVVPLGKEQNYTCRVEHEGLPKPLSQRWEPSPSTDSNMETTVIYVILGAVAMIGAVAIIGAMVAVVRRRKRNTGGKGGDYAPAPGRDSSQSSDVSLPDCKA
row,Substance,percent of total cells in the population bound [%]
1,anti-RT1A monoclonal antibody IgG1 MRC clone OX-18,60
2,anti-RT1A monoclonal antibody IgG1 clone F16-4-4,> 60
3,anti-RT1A monoclonal antibody IgG2a MRC clone OX-27,< 10
